± gives the uncertainty stated by the source.

First the molecules themselves.
B1: Chromodomain-helicase-DNA-binding protein 4, residues 444 to 496; numbered along this chain, Q14839 (parent)
chain: EDDHHMEFCRVCKDGGELLCCDTCPSSYHIHCLNPPLPEIPNGEWLCPRCTCP

The variants in the data set derive from B1. The data set can be described thus: abundance fitness (aPCA) (normalised: wild type 0, dead -1); higher = more abundant; growth selection in yeast, the domain comes from the species named. Conditions: Homo sapiens.
With L37N, the abundance fitness was -0.244 ± 0.056. Regarding L37E, the abundance fitness was -0.249 ± 0.094. Consider L37M, for which the abundance fitness is -0.115 ± 0.05. For the variant L37I, the abundance fitness is -0.049 ± 0.066. With L37S the figure was -0.194 ± 0.042. As for L37Y, the abundance fitness is -0.274 ± 0.057.

In the case of L37W, the abundance fitness is -0.248 ± 0.063.

For L37R, the abundance fitness is -0.233 ± 0.051. With L37C, the abundance fitness was -0.194 ± 0.053.

As to L37Q, the abundance fitness is -0.135 ± 0.054. As to L37P, the abundance fitness amounted to 0.018 ± 0.044. Consider S27Q, for which the abundance fitness was -0.064 ± 0.076.

On to S27E, for which the abundance fitness was -0.472 ± 0.12. With S27A the figure was 0.067 ± 0.062; with S27V, -0.057 ± 0.049; with S27D, -0.705 ± 0.12. With S27W, the abundance fitness was -0.198 ± 0.067. As for S27K, the abundance fitness is -0.082 ± 0.073.

Regarding S27R, the abundance fitness amounted to 0.016 ± 0.052.

For S27Y, the abundance fitness was 0.029 ± 0.059. With S27M the figure was -0.14 ± 0.076; with S27P, -0.572 ± 0.075; with S27G, -0.22 ± 0.057.

For S27T, the abundance fitness is -0.044 ± 0.057. On to S27C, for which the abundance fitness is -0.018 ± 0.075. On to S27F, for which the abundance fitness was -0.177 ± 0.076. With S27I the figure was -0.394 ± 0.091; with S27N, -0.026 ± 0.07. Consider S27H, for which the abundance fitness was -0.068 ± 0.059.

On to P38N, for which the abundance fitness was determined as 0.065 ± 0.066. On to P38V, for which the abundance fitness is -0.113 ± 0.058. For P38H, the abundance fitness was -0.008 ± 0.061. Turning to P38K, the abundance fitness came out at 0.088 ± 0.068.

For the variant P38M, the abundance fitness is -0.082 ± 0.043. As to P38F, the abundance fitness was -0.153 ± 0.054.

In the case of P38I, the abundance fitness is -0.059 ± 0.051.

As to P38D, the abundance fitness was -0.031 ± 0.064.

Take P38W: the abundance fitness is -0.172 ± 0.08. P38T: the abundance fitness is -0.003 ± 0.05.

For the variant P38S, the abundance fitness is -0.075 ± 0.045.

Regarding P38R, the abundance fitness was -0.046 ± 0.049. Turning to P38G, the abundance fitness is -0.196 ± 0.078.

For the variant P38L, the abundance fitness was -0.115 ± 0.046. As to P38A, the abundance fitness is -0.014 ± 0.06. On to P38E, for which the abundance fitness is -0.096 ± 0.099. With P38Q, the abundance fitness was 0.085 ± 0.062. Consider Y28Q, for which the abundance fitness was -0.657 ± 0.073. Take Y28G: the abundance fitness was -0.605 ± 0.074. As for Y28N, the abundance fitness was -0.528 ± 0.045. Take Y28K: the abundance fitness is -0.833 ± 0.12.

Regarding Y28S, the abundance fitness was -0.566 ± 0.057. Take Y28E: the abundance fitness is -0.64 ± 0.082. On to Y28F, for which the abundance fitness amounted to 0.015 ± 0.042. On to Y28H, for which the abundance fitness is -0.54 ± 0.055.

For the variant Y28M, the abundance fitness is -0.656 ± 0.08. For Y28T, the abundance fitness was -0.531 ± 0.069. Regarding Y28A, the abundance fitness was -0.574 ± 0.079. For Y28V the value was -0.471 ± 0.076. In the case of Y28L, the abundance fitness is -0.712 ± 0.058.

With Y28P, the abundance fitness is -0.667 ± 0.062. With Y28W the figure was -0.259 ± 0.053; with Y28C, -0.639 ± 0.099; with L33C, -0.421 ± 0.051. For L33N, the abundance fitness is -0.732 ± 0.061.

As to L33I, the abundance fitness was -0.085 ± 0.042. With L33K the figure was -0.61 ± 0.055. For L33H the value was -0.626 ± 0.053; for L33A, -0.429 ± 0.057; for L33G, -0.598 ± 0.087. Turning to L33T, the abundance fitness is -0.361 ± 0.05. Regarding L33D, the abundance fitness is -0.561 ± 0.092. Turning to L33M, the abundance fitness was -0.326 ± 0.067. With L33R, the abundance fitness is -0.787 ± 0.073.

With L33E, the abundance fitness was -0.685 ± 0.2. Turning to L33P, the abundance fitness is -0.703 ± 0.052. Regarding L33F, the abundance fitness was -0.373 ± 0.048. For L33Q, the abundance fitness was -0.602 ± 0.063.

As for L33W, the abundance fitness is -0.954 ± 0.14. With L33S the figure was -0.54 ± 0.044. As for C32K, the abundance fitness is -0.933 ± 0.094. For the variant C32E, the abundance fitness was -0.66 ± 0.1. For the variant C32R, the abundance fitness was -0.857 ± 0.057.

C32I: the abundance fitness was -0.898 ± 0.083.

For C32N, the abundance fitness is -1.15 ± 0.14. C32M: the abundance fitness is -1 ± 0.079. For C32L the value was -0.99 ± 0.052. For the variant C32F, the abundance fitness was -1.02 ± 0.059. On to C32A, for which the abundance fitness is -0.882 ± 0.067. Turning to C32P, the abundance fitness was -0.937 ± 0.074.

Consider C32D, for which the abundance fitness was -0.68 ± 0.1. For C32V, the abundance fitness is -0.914 ± 0.063. For C32W the value was -1.05 ± 0.1; for C32Q, -0.369 ± 0.085; for C32S, -0.821 ± 0.052. Take H31G: the abundance fitness is 0.002 ± 0.06. On to H31L, for which the abundance fitness is -0.194 ± 0.043. Regarding H31E, the abundance fitness is -0.046 ± 0.05. In the case of H31F, the abundance fitness was found to be 0.017 ± 0.056. On to H31S, for which the abundance fitness is -0.203 ± 0.051. H31W: the abundance fitness is -0.285 ± 0.056.

As to H31C, the abundance fitness was -0.046 ± 0.068.

Consider H31D, for which the abundance fitness is -0.197 ± 0.081. With H31M the figure was -0.063 ± 0.067; with H31I, -0.217 ± 0.062. Turning to H31R, the abundance fitness was -0.042 ± 0.053. As to H31Y, the abundance fitness is -0.097 ± 0.046. On to H31V, for which the abundance fitness is -0.068 ± 0.059. With H31P, the abundance fitness is -0.354 ± 0.059. With H31K, the abundance fitness was 0.035 ± 0.05. On to H31N, for which the abundance fitness is 0.106 ± 0.074.

Turning to H31Q, the abundance fitness was -0.042 ± 0.063. As for H31T, the abundance fitness is -0.042 ± 0.054. For H31A the value was -0.138 ± 0.057. For E44W the value was -0.413 ± 0.076; for E44D, -0.156 ± 0.079. As for E44S, the abundance fitness is -0.018 ± 0.042. In the case of E44C, the abundance fitness is -0.21 ± 0.068. Regarding E44I, the abundance fitness is -0.119 ± 0.076.

As to E44T, the abundance fitness was -0.122 ± 0.063. For E44M, the abundance fitness was -0.084 ± 0.071. In the case of E44V, the abundance fitness is -0.143 ± 0.055. For the variant E44K, the abundance fitness is 0.064 ± 0.073. For the variant E44G, the abundance fitness is 0.03 ± 0.056. With E44H, the abundance fitness was -0.057 ± 0.061. In the case of E44Q, the abundance fitness is -0.104 ± 0.059.

Regarding E44F, the abundance fitness is -0.152 ± 0.08.

In the case of E44A, the abundance fitness is -0.07 ± 0.051. Turning to E44R, the abundance fitness is -0.001 ± 0.042. For E44N, the abundance fitness worked out at 0.095 ± 0.074.

As for E44L, the abundance fitness was -0.024 ± 0.05. In the case of E39W, the abundance fitness was -0.35 ± 0.086. With E39G the figure was -0.056 ± 0.06.

Consider E39I, for which the abundance fitness is -0.026 ± 0.045. For the variant E39A, the abundance fitness stood at 0.011 ± 0.073. For E39R, the abundance fitness was -0.09 ± 0.057. In the case of E39S, the abundance fitness amounted to 0.021 ± 0.044. Regarding E39N, the abundance fitness amounted to 0.026 ± 0.058. Turning to E39D, the abundance fitness is -0.292 ± 0.099.

With E39M, the abundance fitness is -0.095 ± 0.071.

In the case of E39H, the abundance fitness is -0.132 ± 0.058. Take E39P: the abundance fitness is -0.152 ± 0.049. On to E39T, for which the abundance fitness stood at 0.025 ± 0.051. Regarding E39Y, the abundance fitness is -0.201 ± 0.068. Turning to E39F, the abundance fitness was -0.056 ± 0.063. Consider E39L, for which the abundance fitness is -0.189 ± 0.048.

As to E39C, the abundance fitness is -0.178 ± 0.057. For E39K the value was 0.121 ± 0.08.

As to E39V, the abundance fitness was -0.025 ± 0.05.

For E39Q, the abundance fitness was -0.052 ± 0.074. In the case of P36S, the abundance fitness is -0.1 ± 0.047. For P36Q, the abundance fitness is -0.026 ± 0.062. Turning to P36C, the abundance fitness was -0.546 ± 0.088. Regarding P36R, the abundance fitness was -0.095 ± 0.046. In the case of P36N, the abundance fitness was -0.294 ± 0.074. As to P36I, the abundance fitness is -0.195 ± 0.054. With P36F the figure was -0.604 ± 0.068; with P36V, -0.22 ± 0.068; with P36E, -0.33 ± 0.1.

Take P36W: the abundance fitness is -0.546 ± 0.086.

With P36T, the abundance fitness is -0.18 ± 0.049. With P36K the figure was 0.102 ± 0.073; with P36G, -0.244 ± 0.064. For P36A, the abundance fitness was -0.035 ± 0.048.

In the case of P36Y, the abundance fitness is -0.539 ± 0.06. For P36L, the abundance fitness was -0.458 ± 0.045. Regarding P36D, the abundance fitness was -0.323 ± 0.1.

As for P36M, the abundance fitness was -0.274 ± 0.052.

Source of the values: the Human Domainome abundance scans (Beltran et al. 2025).
